The text below walks through data of article PMC11840735.

The assay deals with USP14 (UniProt P54578). Description: co-IP, immunoblot. The note with it: reference: ALKBH5 wild type; sites S64,S69. (In general: Immunoblotting shows a protein as a band on a membrane.)

Consider “ALKBH5 (from UniProt Q6P6C2) ALKBH5 S64A/S69A”, for which the “binding against the reference” value was “weaker”.
